Assay results as given in publication PMC4908976 (Science signaling, 2016).

T1: Gβγ on affinity beads (Gβ with 3xHA-tagged Gγ) (S. cerevisiae, UniProt P18851 1-423; P18852 1-110)
T1 sequence (looked up) 1: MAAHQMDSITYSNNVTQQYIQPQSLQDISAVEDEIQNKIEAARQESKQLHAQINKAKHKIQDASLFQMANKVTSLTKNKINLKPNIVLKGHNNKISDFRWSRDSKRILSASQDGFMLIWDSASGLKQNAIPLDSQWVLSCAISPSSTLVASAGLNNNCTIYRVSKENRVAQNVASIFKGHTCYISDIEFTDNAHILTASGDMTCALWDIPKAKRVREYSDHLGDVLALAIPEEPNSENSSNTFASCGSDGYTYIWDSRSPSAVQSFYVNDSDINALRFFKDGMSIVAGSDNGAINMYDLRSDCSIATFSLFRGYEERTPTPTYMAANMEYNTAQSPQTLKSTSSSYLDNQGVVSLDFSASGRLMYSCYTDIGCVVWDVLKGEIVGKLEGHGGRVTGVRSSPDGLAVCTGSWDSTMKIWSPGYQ
T1 sequence (looked up) 2: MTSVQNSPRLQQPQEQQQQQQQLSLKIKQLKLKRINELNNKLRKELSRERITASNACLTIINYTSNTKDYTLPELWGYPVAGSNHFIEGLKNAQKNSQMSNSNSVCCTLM

B1: myc-tagged Yck1 (yeast casein kinase 1) (enzyme, S. cerevisiae, UniProt P23291 1-538, looked up)
chain: MSMPIASTTLAVNNLTNINGNANFNVQANKQLHHQAVDSPARSSMTATTAANSNSNSSRDDSTIVGLHYKIGKKIGEGSFGVLFEGTNMINGVPVAIKFEPRKTEAPQLRDEYKTYKILNGTPNIPYAYYFGQEGLHNILVIDLLGPSLEDLFDWCGRKFSVKTVVQVAVQMITLIEDLHAHDLIYRDIKPDNFLIGRPGQPDANNIHLIDFGMAKQYRDPKTKQHIPYREKKSLSGTARYMSINTHLGREQSRRDDMEALGHVFFYFLRGHLPWQGLKAPNNKQKYEKIGEKKRSTNVYDLAQGLPVQFGRYLEIVRSLSFEECPDYEGYRKLLLSVLDDLGETADGQYDWMKLNDGRGWDLNINKKPNLHGYGHPNPPNEKSRKHRNKQLQMQQLQMQQLQQQQQQQQYAQKTEADMRNSQYKPKLDPTSYEAYQHQTQQKYLQEQQKRQQQQKLQEQQLQEQQLQQQQQQQQQLRATGQPPSQPQAQTQSQQFGARYQPQQQPSAALRTPEQHPNDDNSSLAASHKGFFQKLGCC
B2: endogenous Yck2 (untagged native protein) (enzyme, UniProt P23292 1-546, looked up)
chain: MSQVQSPLTATNSGLAVNNNTMNSQMPNRSNVRLVNGTLPPSLHVSSNLNHNTGNSSASYSGSQSRDDSTIVGLHYKIGKKIGEGSFGVLFEGTNMINGLPVAIKFEPRKTEAPQLKDEYRTYKILAGTPGIPQEYYFGQEGLHNILVIDLLGPSLEDLFDWCGRRFSVKTVVQVAVQMITLIEDLHAHDLIYRDIKPDNFLIGRPGQPDANKVHLIDFGMAKQYRDPKTKQHIPYREKKSLSGTARYMSINTHLGREQSRRDDMEAMGHVFFYFLRGQLPWQGLKAPNNKQKYEKIGEKKRLTNVYDLAQGLPIQFGRYLEIVRNLSFEETPDYEGYRMLLLSVLDDLGETADGQYDWMKLNGGRGWDLSINKKPNLHGYGHPNPPNEKSKRHRSKNHQYSSPDHHHHYNQQQQQQQAQAQAQAQAQAKVQQQQLQQAQAQQQANRYQLQPDDSHYDEEREASKLDPTSYEAYQQQTQQKYAQQQQKQMQQKSKQFANTGANGQTNKYPYNAQPTANDEQNAKNAAQDRNSNKSSKGFFSKLGCC

Target: T1, Gβγ on affinity beads (Gβ with …)
Assay: affinity purification with mass spectrometry

Binder	Gβ/Gβ^P− ratio (total MS intensity on Gβγ beads over that on Gβ^P−γ beads)
B1	2.25
B2	2.09
